Reference: patent US20130217582, “Library Compositions and Methods for Acyclic Identification of Aptamers” (published 2013)

B1: FIXa aptamer rank 1 (SEQ 133/150) (ssRNA)
RNA: ACGACGCUCUUCCGAUCUAUGGUUCCAGUCGGUGAACUUCCUGAGUCCGGUGUGUGCAAGCUAACGGAGCUCGUAUGC
B2: FIXa aptamer rank 2 (SEQ 114/151) (ssRNA)
RNA: ACGACGCUCUUCCGAUCUAUGGAGGGCAGCCCGGUAGUCGCCCACGGGGAACGCGUCAAGCUAACGGAGCUCGUAUGC
B3: FIXa aptamer rank 3 (SEQ 122/152) (ssRNA)
RNA: ACGACGCUCUUCCGAUCUAUGGUCAUACGCGCAGGCUGGAGGUAUUACCCCCCGGGCAAGCUAACGGAGCUCGUAUGC

target: Coagulation factor IXa (FIXa) (Homo sapiens, UniProt P00740;P00740 P00740:47-191,P00740:227-461); assay: EMSA; estimated by mobility shift compared to a known FIXa aptamer; native PAGE 4 C; T7 transcript starts with GG before F5; conditions: tags: Haematologic Technologies; immobilized on con-A beads for partitioning; putative G/U quadruplex
Sequence (P00740 47-191, chain 1 of 2): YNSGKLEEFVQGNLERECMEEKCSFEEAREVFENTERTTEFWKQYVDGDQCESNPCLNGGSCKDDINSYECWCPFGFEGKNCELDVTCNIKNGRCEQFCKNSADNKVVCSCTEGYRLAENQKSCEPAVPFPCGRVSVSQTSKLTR
Sequence (P00740 227-461, chain 2 of 2): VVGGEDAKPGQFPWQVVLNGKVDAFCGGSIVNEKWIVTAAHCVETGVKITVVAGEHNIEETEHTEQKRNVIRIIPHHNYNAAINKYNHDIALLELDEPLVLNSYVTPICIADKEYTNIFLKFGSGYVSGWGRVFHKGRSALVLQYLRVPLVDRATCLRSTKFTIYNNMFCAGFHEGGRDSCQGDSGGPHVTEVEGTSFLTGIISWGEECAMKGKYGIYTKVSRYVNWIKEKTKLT

In order of falling Kd:
1. B3  ~0.7 µM
2. B1  ~0.22 µM
3. B2  ~0.22 µM
